Experiment: yeast display, Sf9 membrane polyspecificity reagent, FACS + sequencing; frameworks hold sequencing errors
Method in brief: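 A nanobody's polyreactivity label depends on the gate it was sorted from. Yeast display cells were stained with 10% biotinylated, detergent-solubilized Sf9 membrane reagent for 1 hour at 4 °C, enriched on streptavidin microbeads and sorted by FACS. The low and high (top ~1%) gates were set on anti-HA fluorescence for expression and streptavidin fluorescence for reagent binding.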

Sequence	polyreactivity (PSR sort gate)
QVQLVESGGGLVQAGGSLRLSCAASGFTFKPYTMGWYRQAPGKERELVAAISRSGGSTYYADSVKGRFTISRDNAKNTVYLQMNSLKPEDTAVYYCAKRGNSWYLGGSWGQGTQVTVSS	high polyreactivity
QVQLVESGGGLVQAGGSLRLTCAASGSIFGAKAIGWYIQAPGKERELVAALTWSDTSTYYADSVKGRFTISRDNAKNTVYLQMNSLKPEDTAVYYCAAEYEWVTWGWGYYYWGQGTQVTVSS	high polyreactivity
QVQLVESGGGLVQAGGSLRLSCAASGGTFKYYTMGWYRQAPGKERELVAAISSGGITYYADSVKGRFTISRDNAKNTVYLQMNSLKPEDTAVYYCNVVSYYIAGGWYEGDYWGQGTQVTVSS	low polyreactivity
QVQLEESGGGLVQAGGSLRLSCAAYGIIFRTYDMGWYRQAPGKEREFVAAINSDCSTYYADSVKGRFTFSRDNAKNSVYLQMISVKTEDTAVYYCASDHYYAGAWYYFWGQGTQVTVSS	high polyreactivity
QVHLVESGGGLVQAGGSLRLSCAASGSIFITYAMVWYRQAPGKERELVAAIRDSGDRTYYADSVKGRFTISRDNAKNTVYLQMNSLKPEDTAVYYCNARWQEPLKYDYWGQGTKVTVSS	low polyreactivity
QVQLVESGGALVQAGGSLRLSCAASGRTFGRYAMGWYRQAPGKEREFVASISRRGGTTYYADSVKGRFTLSRDNAKNTVYLQMNSLKPEDTGVYYCAKEGSPTNPWYGSYEYDYWGQGTQVTVSS	low polyreactivity
QVQLVESGGVLVQAGGSLRITCAASGHIFFYDTMGWYRQAPGKERELVAGITIGGSTNYADSVKGRFTISRDNAKNTVSLQMNSLKPEDTAVYFCNVVKYVYIYSYWEYYYWGQCTQVTVSS	low polyreactivity
QVQLVESGGGLVQAGGSLRLSCAASGRTSASNAMGWYREAPGKERELVATIDGIDGNTYYADSVKGRFTISRDNAKNTVYLQMNSLKPEDTAVYYCNVESWRLQAIYKYSYWGQGTQVTVSS	low polyreactivity
QVQLVESGGGLDQAGGSLRLSCAASVFIFAYYAMGWYRQAPGKERELVAAITRHGGSTYDADSVKGRFTISRDNAQNTVYLQMNSLKPEETAVYYCNAYFGWSASRQSYDYWGQGTQVTVSS	high polyreactivity
QVQLVESGGGLVHAGGSLRLSCAASGSTFYYNAMGWYRQAPGKERELVAAITKSGDDTYYADSEKGRFTISRDNATNTVYLQMNSLKPEDTAVSYCAAYLSWYDYWGQGTQVTVSS	low polyreactivity
QVQLLESGGGLVHAGGSLRLSCAASGRIFLGNAMGWYIQAPRKERELVASISRGGGTTYYADSVKGRITISRDNAKNTVYLQMNRLKPEDTAVYYCAARVYYVVQHGKYVYWGQGTQVTVSS	high polyreactivity
QVQLVESGGGLVQAGGSLRLSCAASGSTLYTYDMGWYRQAPGKERELVASISGSDGSTYYADSVKGRFTISRDNAKNTVYLQMNSLKPEDTAVYYCAVDSYQTGVYFYYVYWDFDLGYWGQGTQVTVSS	low polyreactivity
QVQIVESGAGLVQAGGSLRISCAPSGRTFLYNAMGWYIQAPGKESELVAAIDGGTGSTYYADSVKARFTISRDNAKNTVYLQMIRLNPEDTAGYYCAAETYGVGYPVNYDYWGQGTQVTVSS	low polyreactivity
QVQLVESGGGLVQAGGSLRLSCAASGSTFGLNAMGWYRQAPGKERELVAAITSGGTYYADSVKGRFTISRDNAKNTVYLQMNSLKPEDTAVYYCAADGTWSIYGGLYYWGQGTQVTVSS	low polyreactivity
QVQLVESGGGLVQAGGSLRLSCAASGRNFRGNTMGWYRQAPGKERELVAAITRGGSTSYADSVKGRFTISRDNAKNTVILQMNSLKPEDTAVYYCATRTHGEGTRRVSWGQGTQVTVSS	low polyreactivity
QVQLVESGGRLVQAGGSLRLSCAASGIIFSGYAMGRYRPAPGTVREFVAAIDSVTSTYYADSVKGRFTTSRDNANNTVYLQMISLKPEVTAVYYCNARSDCTWYTLDYWGQGTQVTVSS	high polyreactivity
QVQLVESGGGLFQAGGSLRLSCAATVSNYRYYAMGWYRQAPGKETELVAYITSSGGSTYYADSVKGLFTISRDYAKNTVYLQMNSLKPEDTAVYYCAALSWLYVYPFTEYDYWGQGTQVTVSS	low polyreactivity
QVQLVESGGGLVQAGGSLRLSCPASGSTFQYYHMGWYRQEPGKERELVASITGSGDSTYYADSVKGRFTISRDNAKNTVYLQMNSLNPEDTAVYYCAAQITWSGYYDYWGQGTQVTVSS	low polyreactivity
QVQLVESGGGLVQAGGSLRLSCAASGIFSRYAMGWYRQAPGKERELVAAISSGDSTNYADSVKGRFTISRDNAKNTVYLQMNSLKPEDTAVYYCATERSHLATGQGYYYVQTFYYWGQGTQVTVSS	low polyreactivity
QVQLVESGGGLVQAGGSLRLSCAASGSIFSDNAMGWYRPAPGKESELVAAITYSGGRTSYADSVKGRFTISRDNAKNTVYLQMNSLKPEDTAVYYCNAEYYYWNREGDYWGQGTQVTVSS	low polyreactivity
QVQLVESGGGLVQAGGSLRLSCAASGSNFENYAMGWYRQAPGKERELVAAISSNGGSTYYADSVKGRFTLSRDKAKNTVYLQKNSLKPEDTAVYYCNKGRYYRQIYDYWGQGTQVTVSS	high polyreactivity
QVQLVESGGGLVQAGGSLRLSCAASGRIFWDYAMGWYRQAPGKERELVAGISYSGGSTSYADSVKGRFTISRDNAKNTVYLQMKSLKPEDTAVYYCAAGPSGTFFRDYDYWGQGTQVTVSS	low polyreactivity

Sequence	polyreactivity (PSR sort gate)
QVQLVESGGGLVQEGGSLLLSCAASGRTFNQYAMGWYRQAPGKERELVAGITISGGSTYYADSVKGRFTISRENAKNTVYLQMNSLIPEDTAVYYCIAVFDYYRQSKWTMDYWGQGTQVTVSS	low polyreactivity
QVQLVESGGGLVQAGGSLRLSCAASGSTFWVYTMGWYRQAPGKERELVAAINYSDGSTYYADSVKGRFTISRDNAKNTVYLQMNRLKPEDTAVYYCAAGSDPTGRRYDYWGQGTQVTVSS	low polyreactivity
QVQLVESGGGLVQAGGSLRLSCAASGSTFGGYAMGRYRQAPGKERELVAAISNGDRTNYADSVKGRFTISRDNAKNTVYLQKNSLKPEETAVYYCATRTLFRYPNYGNNLWGYDYWGQGTQVTVSS	low polyreactivity
QVQLVESGGGLVQAGGSLRLSCAASGRIFYGYVMGWYRQAPGKERELVAAISWSAGRTYYADSVKGRFTISRDNAKNTVYLQMNSLKPEDTAVYYCAARYFSLYVWSTFEYWGQGTQVTVSS	high polyreactivity
QVQLVESGGGLVQAGGSLRLTCAASGLTFYSNTMGWYIQAPGKERELVAAISWTGTSTYYADSVKVRFTISRDNAKNTVFLQMNSLKAEDTAVYYWNALGYARSYDSWGQGTQVTVSS	high polyreactivity
QVQLVESGGGLVQAGGSLRLSCAASGLTFSYYTMGCYRQAPGKERELVARISNRGTNTYYADSVKGRFTISRDNAKNTVYLQMNSLKPEDTAVYYCAKYYYTSIVGYDSWGQGTQVTVSS	low polyreactivity
QVQLVESAGGLVQAGGSLRLSCAASGSNDTNAMGWYRQEPWKERELVADITSGTPTYADSVKGRFTISRDNAKNTVFLQMNSLKPEDTAVYYCAADIPPWCGDYWGQGTQVTVSS	low polyreactivity
QVQLVESGGGLVQAGGSLRLSCAASGSTFGYNDMGWYRQAPGKERELVAAIDTGVSTNYADSVKGRFTISRDNAKNTVYLQMNSLKPEDTAVYYCAKSGSAYWHSGWSVGFDYWGQGTQVTVSS	low polyreactivity
QVQLVESGGGLVQAGGSLRLSCAASGFTFYGYGMGWYRQAPGKERELVAGISSGGGSTIYADSVKGRFTISRDNAKNTVYLQMNSLKPEDTAVYYCAADYWPYSYDTYPAEFDYWGQGTQVTVSS	low polyreactivity
QVQLVESGGGLVQAGGSLRLSCAASGSTFYVNTMGWYRQAPGKERELVAVISRTGTSTYYADSVKGRFTISRDNAKNTVYFQMNCLKPEDTAVYYCAKRPLPGRPNRSILQYYYWGQVTQVTVSS	high polyreactivity
QVQLVESGGGLVQAGGSLRLSCAASGFTFPFNAMGWYRQAPGKERELVAAISQRTGRTYYADSVKGRFTISRDNAKNTVYLQMNSLKPEDTAVYYCNARTGTTGYGRYDYWGQGTQVTVSS	high polyreactivity
QVQLVESGGGLVQAGGSLSLSCAASGSTFRYYTMGWYRQAPGKERELVAAISWTGGGTYYADSVKGRFTISRDNAKNTVYLQMNSLKPEDTAVYYCAASYYYELFRFDYWGQGTQVTVSS	high polyreactivity
QVQLVESGGGLVQAGGSLRLSCAASGFIFARYAMGWYRQAPGKERELVAAISSGGRTYFADSVKGRFTISRDNAKNTVYLQMNSLKPEDTAVYYCAKRPTNGYGTFDYWGQGTQVTVSS	high polyreactivity
QVQLVESGGGLVQAGGSLRLSCAASGSIYPNYTMGWYRQAPGKERQLVAAITISGGTTYYSDSVKGRFTISRDNAKNTVYLQMISLKPEDTAVYYCADYHRDRNSGFDYWGQGTQVTVSS	high polyreactivity
QVQLVESGGRLVQAGGSLRLSGAASVLTFNFNAMGWYRQAPGKERELVAANSYRAGSTYYADSVKGRFTISRDNAKNTVYLQMNSLKPEDTAVYYCAKPTYRFYWGDFDYWGQGTQVTVSS	low polyreactivity
QVQLVESGGGLDQAGGSLRLSCAASGLIFYYYALGWYRQAPGKERELVAAISSRGSSTYYADSVKGRFTISRDNAKKTVYLQMNSLKPEDTAVYYCAADSVRKYFGYDYWGQGTQVTVSS	high polyreactivity
QVQLVESGGGLVQAGGSLRLSCAASGSIFFSNAMGWYRQAPGKEREFVATITSSGVGTYYADSVKGRFTISRDNAKNTVYLQMNSLKPEDTAVDYCDADYNSQEDYWGQGTQVTVSS	low polyreactivity
QVQLVESGGGLVLAGGSLRLSCAASGRIYRIYNKGWYRQAPGKERELVAAISKSGGGTYYADSVKGRFTISRDNAKNTVYLQMNSLKPEDTAVYYCTTANWDRKSRVFRQSTVGYGYWGQGTQVTVSS	high polyreactivity
QVQLVESGGGLVQAGGSLRLSCAASGRTFLAMGWYRQAPGKERELVAAISRTNYADSVKGRFTISRDNAKNTVYLQMNSLKPEDTAVYYCAKEYYSYEVYLGLSYVRRYDYWGQGTQVTVSS	low polyreactivity
QVQLVESGGGLVQAGGSLRLSCAASGSIFGYYAMGGYIQAPGYERELVAAISYSGGSTYYADSVKGRFTISRDHAKNTVYLQMNSLKPEDTAVYYCAAVRRRTRYGYRYDYWGQGTQVTVSS	high polyreactivity
QVQLVESGGGLVQAGGSLRLICAASGSTFFSYAMGWYRPAPGKERQLVAAITRSGGSTYYADSVKGRFTISRDNAKNTVFLQMNSLKPEDTAVYYCNADLGIGYDYWGQGTHVTVSS	high polyreactivity
